From paper PMC4924860, “Environmental Factors Modulating the Stability and Enzymatic Activity of the Petrotoga mobilis Esterase (PmEst)” (PLoS ONE, 2016)

Assays:
[1] = target: Petrotoga mobilis esterase (PmEst) (Petrotoga mobilis); assay: SEC; Superdex 200 10/300 GL column, calibrated with carbonic anhydrase, ovalbumin, bovine serum albumin, conalbumin and aldolase; purified PmEst in aqueous solution
purified protein [2] = substrate: CC(=O)Oc1ccc([N+](=O)[O-])cc1; assay: purified protein; type: biochemical, Petrotoga mobilis; conditions: 10 mM sodium phosphate pH 7.4, 500 nM enzyme, acetonitrile from substrate stock, temperature of the kinetics not stated
purified protein [3] = substrate: CCCC(=O)Oc1ccc([N+](=O)[O-])cc1; assay: purified protein; type: biochemical, Petrotoga mobilis; conditions: 10 mM sodium phosphate pH 7.4, 500 nM enzyme, acetonitrile from substrate stock, temperature of the kinetics not stated

stoichiometry N [1] | Molecule | Km (purified protein [2]) [µM] | kcat (purified protein [2]) [s⁻¹] | kcat/Km (purified protein [2]) [M⁻¹ s⁻¹] | Km (purified protein [3]) [µM] | kcat (purified protein [3]) [s⁻¹] | kcat/Km (purified protein [3]) [M⁻¹ s⁻¹]
3 | Petrotoga mobilis esterase (PmEst) (enzyme) |  |  |  |  |  | 
 | PmEst (Petrotoga mobilis SJ95) (protein, synthetic gene, modified pET28a, N-terminal His6-SUMO fusion cut by SUMO protease; E. coli Rosetta (DE3); PFAM PF00756 esterase) MALLEVNFMSRSLMRKVPIMVVLPMDKANLSGKSEITDNDNNTFKTLYLLHGIFGNYSDWVSETRIQRLAEGRNLAVVMPSGENSFYLDQPESGNFYGEFIGRELVNITRKMFPLSRKKEDTFIAGLSMGGYGAIRNGLKYHETFGCVAGLSSALNFEQMLDESYQVIACKKSAFGDPKEAILSDKNPKVLVKNIKENPLGQFPKMYMACGTEDNLINSNRDFRDFLIENNVDLTYEEGPGAHTWEFWDTYIEKVLDWLPLKKPS | 1430 ± 170 | 29.2 ± 1.2 | 20500 ± 1600 | 160 ± 10 | 14.1 ± 0.29 | 88100 ± 6000
